In US20200164071A1 (GENSUN BIOPHARMA, published 2020):
One block for each binder: values may come before it.

Tests used:
[1] = target: T1, cyno TIGIT on CHO-K1 cells (cyno, UniProt A0A7N9I9V4 89-312); assay: flow cytometry, CHO-K1 cells expressing cyno TIGIT (binding assay of Example 5)
T1 construct: whole, on cells; also called cyno-hu TIGIT
Method: (§1) The mixtures were incubated at 4 C for 20 min and washed 3 times. The mixtures were stained with the secondary antibody, PE labeled F(ab′)2-Goat anti-human IgG Fc (Thermo H10104) at 4° C. for 20 min. Cells were washed and resuspended in 7AAD solution and fixed in 10% neutral buffered formalin solution for 15 minutes before analysis with the iQue Intellicyt system.

[2] = target: T2, human TIGIT on CHO-K1 cells (human, UniProt Q495A1 23-244); assay: flow cytometry, CHO-K1 cells expressing full-length human TIGIT, PE F(ab')2 goat anti-human IgG Fc (Example 5)
T2 construct: also called hu TIGIT; TIGIT+CHO-K1 cells
T2 sequence: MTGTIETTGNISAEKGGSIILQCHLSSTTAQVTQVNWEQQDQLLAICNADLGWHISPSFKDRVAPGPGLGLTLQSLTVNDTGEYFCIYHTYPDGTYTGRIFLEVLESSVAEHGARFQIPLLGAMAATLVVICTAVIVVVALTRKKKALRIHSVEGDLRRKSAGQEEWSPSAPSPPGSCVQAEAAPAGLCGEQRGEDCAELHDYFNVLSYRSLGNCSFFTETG
Method: as §1

[3] = target: T2, human TIGIT on CHO-K1 cells; assay: flow cytometry blocking assay of Example 4: biotinylated hPVR-mIg on human TIGIT CHO-K1 cells
[4] = target: T1, cyno TIGIT on CHO-K1 cells; assay: flow cytometry blocking assay of Example 4: biotinylated hPVR-mIg on cyno TIGIT CHO-K1 cells
[5] = target: T2, human TIGIT on CHO-K1 cells; assay: flow cytometry competition with biotinylated hPVR-mIg on CHO-K1 cells expressing human TIGIT
Method: (§2) The cells were washed 2 times before staining with PE streptavidin (BioLegend) for 20 min at 4 C. The cells were then washed, resuspended in 30 μl 7 AAD solution, and 35 μl of 10% neutral buffered formalin solution was added. The cells were then incubated for 15 min. Flow cytometry was performed and IC50 was calculated using iQue intellicyt system.

[6] = target: T2, human TIGIT on CHO-K1 cells; assay: flow cytometry blocking assay: biotinylated hPVR-mIg on human TIGIT CHO-K1 cells, PE streptavidin (Examples 4 and 6)
Method: as §2

[7] = target: T2, human TIGIT on CHO-K1 cells; assay: flow cytometry, CHO-K1 cells expressing human TIGIT (binding assay of Example 5)
Method: as §1

[8] = target: T3, human TIGIT (antigen of Table 3) (human, UniProt Q495A1 23-141, limits assumed); assay: binding kinetics, method not described (Table 3, Binding Affinity)
T3 construct: neither the method nor the antigen construct is described; limits and tags unknown; also called hu TIGIT
T3 sequence: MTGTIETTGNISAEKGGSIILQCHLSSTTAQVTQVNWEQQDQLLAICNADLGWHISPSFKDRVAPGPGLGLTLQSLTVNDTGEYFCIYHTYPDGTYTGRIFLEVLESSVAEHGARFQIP

[9] = target: T2, human TIGIT on CHO-K1 cells; assay: flow cytometry competition assay: PVR (CD155) signal on human TIGIT CHO-K1 cells against titrated antibody (Example 3 names human PVR-human Fc, m15, with PE anti-human Fc)
Description: Cells were then washed with FACS buffer and then re-suspended in 7-amino-actinomycin D (7AAD) solution before analysis with iQue intellicyt system.

[10] = target: T4, human PD-1 on CHO-K1 cells (human, UniProt Q15116 25-288); assay: flow cytometry blocking assay: FITC human PD-L1-Fc on human PD-1 CHO-K1 cells (Examples 11 and 16); title: Blocking PD-L1 binding to PD-1
T4 construct: also called Human PD-1 transfected CHO-K1 cells
T4 sequence (Q15116 25-288): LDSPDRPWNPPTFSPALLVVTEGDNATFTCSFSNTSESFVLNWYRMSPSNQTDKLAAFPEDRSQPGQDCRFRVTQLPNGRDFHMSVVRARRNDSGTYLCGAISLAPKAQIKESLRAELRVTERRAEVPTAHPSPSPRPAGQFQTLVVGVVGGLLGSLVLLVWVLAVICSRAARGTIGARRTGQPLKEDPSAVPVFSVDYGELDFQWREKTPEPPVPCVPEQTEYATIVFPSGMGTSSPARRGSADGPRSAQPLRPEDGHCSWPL
Method: (§3) Human or Cyno PD-1 transfected CHO-K1 cells were washed with FACS buffer (0.5% BSA 2 mM EDTA in PBS) and re-suspended at a concentration of 10⁶ cells/ml. […] The cells were then washed and re-suspended in 30 μl 7 AAD solution; 35 μl 10% neutral buffered formalin solution was then added and incubated for 15 mins. before analysis using the iQue intellicyt system.

[11] = target: T5, His tagged human PD-1 protein (human, UniProt Q15116 25-170, limits assumed); assay: bio-layer interferometry (Octet RED96), antibody on anti-human IgG capture biosensors, His tagged human PD-1 as analyte, 1:1 global fit (Example 12)
T5 construct: also called huPD-1-His; not shown: His tag
T5 sequence (Q15116 25-170 limits assumed): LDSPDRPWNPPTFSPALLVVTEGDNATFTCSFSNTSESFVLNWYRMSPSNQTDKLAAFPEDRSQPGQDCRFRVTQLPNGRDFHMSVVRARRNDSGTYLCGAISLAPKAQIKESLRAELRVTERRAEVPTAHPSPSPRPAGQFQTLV
Method: […] was carried out using the Octet RED96 system (ForteBio Octet RED96 System) to characterize the binding kinetics of antibodies against His tagged human PD-1 protein. 20 nM of antibody was loaded onto the anti-human IgG capture biosensors. Association of analyte (His tagged human PD-1 protein) was observed by placing the biosensors in wells containing 2 or 3 fold serial dilution of analytes (72 nM being the highest concentration) for 5 mins. Dissociation was measured after transfer of the biosensors into kinetic buffer alone and monitoring of the interferometry signal for 10 minutes. The observed on and off rates (Ka and Kd) were fit using a 1:1 binding global fit model comprising at least 5 concentrations tested, and the equilibrium binding constant KD was then calculated.

[12] = target: T4, human PD-1 on CHO-K1 cells; assay: flow cytometry blocking assay: FITC human PD-L1-Fc on human PD-1 CHO-K1 cells (Examples 11 and 15); title: PD-1 Blocking Activity Screening
Method: as §3

[13] = target: T4, human PD-1 on CHO-K1 cells; assay: flow cytometry blocking assay: FITC human PD-L1-Fc on human PD-1 CHO-K1 cells (Example 11)
Method: as §3

[14] = target: T4, human PD-1 on CHO-K1 cells; assay: flow cytometry blocking assay: FITC human PD-L1-Fc on human PD-1 CHO-K1 cells (Example 11; the legend paragraph 42 calls it binding to hu PD-L1)
Method: as §3

[15] = target: T4, human PD-1 on CHO-K1 cells; assay: flow cytometry blocking assay: FITC human PD-L1-Fc on human PD-1 CHO-K1 cells (Example 11); axis: % of PD-L1 Binding Signal; first of two legend entries printed PD-05 Human
Method: as §3

[16] = target: T6, cyno PD-1 on CHO-K1 cells (cyno); assay: flow cytometry blocking assay of Example 11, PD-L1 on cyno PD-1 CHO-K1 cells; cyno taken from the legend paragraph 42 ('cyno-hu'), while Example 11 speaks of human PD-1 and human PD-L1 for this figure
T6 construct: whole, on cells; also called cyno hu PD-1; Cyno PD-1 transfected CHO-K1 cells
Method: as §3

T1 sequence (A0A7N9I9V4 entry or part of it): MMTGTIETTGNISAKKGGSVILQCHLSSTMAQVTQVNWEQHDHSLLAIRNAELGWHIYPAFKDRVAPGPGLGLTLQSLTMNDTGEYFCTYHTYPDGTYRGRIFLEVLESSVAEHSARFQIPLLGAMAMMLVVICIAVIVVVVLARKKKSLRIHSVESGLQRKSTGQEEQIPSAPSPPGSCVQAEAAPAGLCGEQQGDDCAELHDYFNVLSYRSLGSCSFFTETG

B3: PD-01 mab (antibody, V domains shown)
VH: EVQLVESGGGLVQPGGSLRLSCAASGFTFSNFLMSWVRQAPGKGLEWVSTISGGGRDTYYVDSVKGRFTISRDNSKNTLYLQMNSLRAEDTAVYYCAKRTTYSMDYWGQGTSVTVSS
VL: DIQMTQSPSSVSASVGDRVTITCLASQTIGTWLAWYQQKPGKAPKLLIYAATSLADGVPSRFSGSGSGTDFTLTISSLQPEDFATYYCQQFYSIPWTFGGGTKLEIK
notes: also called anti-PD-1 (PD-01)
IC50 [10]: 1.5 nM
Kd [11]: 2.2 nM
koff [11]: 0.000272 s⁻¹
kon [11]: 126000 M⁻¹ s⁻¹
IC50 (read off the curve) [12]: ~1 nM
IC50 [13]: 2.28 nM

B4: PD-05 (antibody, V domains shown)
VH: QVQLVQSGAEVKKPGASVKVSCKASGYTFTTYYIYWVRQAPGQGLEWMGGINPGNGGTNFNEKFKIRVTMTRDTSISTAYMELSSLRSEDTAVYYCARRYHGYDGGLDYWGQGTLVTVSS
VL: DIVLTQSPASLAVSPGQRATITCRASKSVSTSGFSYIHWYQQKPGQPPKLLIYLASNLESGVPARFSGSGSGTDFTLTINPVEANDTANYYCQHTWELPNTFGGGTKVEIK
notes: also called anti-PD-1 mab PD-05
IC50 [14]: 0.56 nM
IC50 [15]: 0.56 nM
IC50 [16]: 1.6 nM

Continued, values first:

EC50 (read off the curve) [1]: ~1 nM
EC50 [2]: 0.4 nM
IC50 (read off the curve) [3]: ~1 nM
IC50 (read off the curve) [4]: ~1 nM
IC50 [5]: 0.4 to 1.67 nM
IC50 [6]: 1.2 nM
EC50 (read off the curve) [7]: ~0.5 nM
Kd [8]: 5.44 nM
koff [8]: 0.00376 s⁻¹
kon [8]: 690000 M⁻¹ s⁻¹
B1: T-08 (antibody, V domains shown)
VH: QVQLVQSGSELKKPGASVKVSCKASGYTFTNYGMNWVRQAPGQGLEWMGWINTYTGEPTYADDFKGRFVFSLDTSVSTAYLQISSLKAEDTAVYYCARAPPYGYDVRFAYWGQGTLVTVSS
VL: DVVMTQSPLSLPVTLGQPASISCRSSQSIVHSNGNTYLEWFQQRPGQSPRVLIYKVSDRFSGVPDRFSGSGSGTDFTLKISRVEAEDVGVYYCFQGSHVPWTFGRGTKLEIK
notes: Anti-human TIGIT monoclonal antibody from mouse hybridoma; also called anti-hu TIGIT mab T-08; anti-TIGIT (T-08)

EC50 [2]: 0.23 nM
IC50 (read off the curve) [9]: ~0.3 nM
IC50 [5]: 0.12 to 0.31 nM
IC50 (read off the curve) [6]: ~0.4 nM
Kd [8]: 0.67 nM
koff [8]: 0.000538 s⁻¹
kon [8]: 809000 M⁻¹ s⁻¹
B2: T-04 (antibody, V domains shown)
VH: EVQLVQSGAEVKKPGATVKISCKVSGYTFTDHTIHWVQQAPGKGLEWMGYIYPRDGSSKYNVKFKGRVTITADTSTDTAYMELSSLRSEDTAVYYCATGMLRWFAYWGQGTLVTVSS
VL: DIQMTQSPSSLSASVGDRVTITCKASQDVFTAVAWYQQKPGKAPKLLIYSASYRYTGVPSRFSGSGSGTDFTFTISSLQPEDIATYYCQQHYSIPLTFGAGTKLEIK
notes: Anti-human TIGIT monoclonal antibody from mouse hybridoma; also called anti-hu TIGIT mab T-04
